Patent US20240270840A1 (NECTIN THERAPEUTICS, published 2024)

Key:
[1] = target: T1, Human CD112R (PVRIG) (human, UniProt Q6DKI7 41-171, limits assumed); assay: SPR (Biacore); human CD112R as ligand, antibody as analyte
T1 sequence (looked up): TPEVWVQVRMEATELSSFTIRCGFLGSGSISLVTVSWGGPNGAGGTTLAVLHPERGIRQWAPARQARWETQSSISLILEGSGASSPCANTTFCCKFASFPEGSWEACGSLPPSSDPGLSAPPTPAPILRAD

[2] = target: T1, Human CD112R (PVRIG); assay: SPR (Biacore); human CD112R as ligand, antibody as analyte; * limit of Biacore instrument
[3] = target: T1, Human CD112R (PVRIG); assay: SPR (Biacore), against the reference Ab
[4] = target: T2, Human CD112R expressed on cells (human, UniProt Q6DKI7 1-326); assay: FACS, chimeric mAb 99-0.4 nM in three-fold dilutions on HEK 293T cells overexpressing CD112R, anti-human-APC 1:200
T2 construct: whole, on cells; also called HuCD112R; hCD112R
T2 sequence (looked up): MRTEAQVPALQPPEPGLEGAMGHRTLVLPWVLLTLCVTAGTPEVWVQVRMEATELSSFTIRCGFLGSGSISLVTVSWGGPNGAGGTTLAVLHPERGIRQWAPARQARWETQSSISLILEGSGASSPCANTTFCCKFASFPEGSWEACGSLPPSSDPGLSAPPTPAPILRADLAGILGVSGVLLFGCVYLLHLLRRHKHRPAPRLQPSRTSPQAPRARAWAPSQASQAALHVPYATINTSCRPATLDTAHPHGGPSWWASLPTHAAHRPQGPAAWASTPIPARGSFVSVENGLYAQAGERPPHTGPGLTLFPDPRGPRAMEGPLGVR
Procedure: For detection, anti-human-APC antibody (Ab) was used at 1:200 dilution, and cell binding was analyzed by FACS. FIG. 3C—8866 cells ([…]) overexpressing human Nectin-2 were incubated with 10 μg/ml of CD112R-Fc in the presence of isotype control Ab, or with the indicated clones at 4 μg/ml. Bound CD112R-Fc was detected by anti-mouse-Dy-647 1:250 dilution and analyzed by FACS. The blocking of CD112R binding exceeded 95% by all the variants.
Binding was analyzed by FACS and used for calculation of EC-50 values. […] The N31S variant, engineered to remove an N-Linked glycosylation motif at the CDR1 of the heavy chain, had improved (sub-nM) binding to human CD112R in this cell-based assay.

[5] = target: Cynomolgus monkey (Macaca fascicularis) CD112R expressed on cells (cynomolgus monkey (Macaca fascicularis)); assay: flow cytometry on 293T cells expressing cynomolgus CD112R; 99-0.05 nM, three-fold dilutions
[6] = target: T2, Human CD112R expressed on cells; assay: flow cytometry on human NK cells (endogenous CD112R)
[7] = target: Cynomolgus monkey (Macaca fascicularis) CD112R expressed on cells (cynomolgus monkey (Macaca fascicularis)); assay: flow cytometry on cynomolgus CD8 T cells (endogenous CD112R)
[8] = target: T2, Human CD112R expressed on cells; assay: flow cytometry on human NK cells (endogenous CD112R); remark: listed apart in the source
Procedure: (§1) The humanized mAbs were tested for binding of endogenous and overexpressed human and cynomolgus CD112R.
(§2) Table 7 summarizes EC50 values calculated based on the binding curves of selected humanized mAbs to cynomolgus CD8 T cells and human NK cells, both cells expressing endogenous CD112R of the relevant species. Assay was performed as in Table 6. An anti-CD112R mAb disclosed in WO2016134333 was used for comparison. All the humanized variants have a complete cross-reactivity between the human and cynomolgus targets.

[9] = target: Cynomolgus monkey (Macaca fascicularis) CD112R expressed on cells (cynomolgus monkey (Macaca fascicularis)); assay: flow cytometry on 293T cells; EC50 on cynomolgus CD112R against EC50 on human CD112R
[10] = target: T2, Human CD112R expressed on cells; assay: flow cytometry EC-50 on human NK cells, against the reference Ab (member assigned from Table 7)
[11] = target: T2, Human CD112R expressed on cells; assay: flow cytometry on 293T cells expressing human CD112R; 99-0.05 nM, three-fold dilutions
Procedure: as §1

[12] = target: T1, Human CD112R (PVRIG); assay: SPR (Biacore); purified full antibody
[13] = target: Cynomolgus monkey (Macaca fascicularis) CD112R expressed on cells (cynomolgus monkey (Macaca fascicularis)); assay: flow cytometry; EC-50 on cynomolgus CD8 T cells against EC-50 on human NK cells
[14] = target: T2, Human CD112R expressed on cells; assay: flow cytometry; max binding on human NK cells against max binding on cynomolgus CD8 T cells
Procedure: as §1, §2

[15] = target: T1, Human CD112R (PVRIG); assay: SPR (Biacore); purified full antibody; * limit of the Biacore instrument sensitivity
[16] = target: T2, Human CD112R expressed on cells; assay: flow cytometry competition on 293T cells overexpressing CD112R; antibody 40-0.018 nM; competitor hNectin-2-mIgG2a at 125 nM
Procedure: The humanized anti-CD112R antibodies are potent blockers of CD112R—Nectin-2 interactions. […] The antibodies were added in a range of concentrations of 40-0.018 nM in a series of three-fold dilutions. The amount of bound hNectin-2-mIgG2a was detected by anti-mouse antibodies fluorescently labeled with Dy-light 647 (115-606-071 Jackson immunoresearch) and analyzed by FACS.

Binder	EC50 [4]	EC50 [5]	Max binding Hu (MFI a.u - background) [6]	EC50 [7]	Max binding Cyno (MFI a.u - background) [7]	EC50 [8]	Ratio Cyno/Hu (EC50) [9]	fold improved binding compared to the reference Ab [10]	EC50 [11]	Kd [12]	Relative Kd (against VH0K0 N28T) [12]	koff [12]	kon [12]	Ratio Cyno/Hu (EC-50) [13]	Ratio Hu/Cyno (max binding) [14]	also measured
Clone-13-hIgG1 (antibody, V domains shown, Chimeric antibody with human IgG1 constant region; also called chimeric clone (clone 13)) VH: QVQLQQPGAELVKPGTSVKLSCKASGYNFTSYWINWVKLRPGQGLEWIGDIYPGSYIPNYNEKFKNKATLTVDTSSSTAYMQLTSLASEDSALYYCAGGYFDVWGAGTTVTVSS VL: DIVMTQSPSSLSVSAGEKVTMSCKSSQSLLNSGNQKNYLAWYQQKPGQPPKLLIYGASTRESGVPDRFTGSGSGTDFTLTISSVQAEDLAVYYCQNDHSYPYTFGGGTKLEIK	1.24 nM															koff [1]: 2.96e-06 s⁻¹; kon [1]: 340000 M⁻¹ s⁻¹; Kd [2]: 0.00871 nM; fold more potent in binding CD112R than the reference Ab [3]: 3 to 30 fold
Clone 15 (antibody, V domains shown) VH: QVQLQQPGAELVKPGTSVKLSCKASGYNFTSYWINWVKLRPGQGLEWIGDIFPGSYSPNYNKKFKRKATLTVDTSSSTAYMQLSSLASEDSALYYCAGGYFDVWGAGTTVTVSS VL: DIVMTQSPSSLSVSAGEKVTMSCKSSQSLLNSGSQKNYLAWYQQKPGQPPKLLIYGASTRESGVPDRFTGSGSGTDFTLTISFVQAEDLAVYYCQNDHSYPYTFGGGTKLEIK	1.29 nM															
VH10K3 (full humanized antibody) (antibody, V domains shown, Humanized full antibody, human IgG1) VH: QVQLVQSGAEVKKPGSSVKVSCKASGYTFTSYWINWVRQAPGQGLEWIGDIYPGSYIPNYNEKFKNRATLTVDTSASTAYMELSSLASEDTALYYCAGGYFDVWGQGTTVTVSS VL: DIVMTQSPDSLAVSLGERATINCKSSQSLLSSGNQKNYLAWYQQKPGQPPKLLIYGASTRESGVPDRFSGSGSGTDFTLTISSLQAEDVAVYYCQNDHSYPYTFGQGTKLEIK		0.5 nM	988 MFI a.u	1.39 nM	933 MFI a.u	0.77 nM	1.67	> 2 fold	0.3 nM	0.121 nM	0.96	4.36e-05 s⁻¹	361000 M⁻¹ s⁻¹	1.81	1.06	
VH10K2 (full humanized antibody) (antibody, V domains shown, Humanized full antibody, human IgG1) VH: QVQLVQSGAEVKKPGSSVKVSCKASGYTFTSYWINWVRQAPGQGLEWIGDIYPGSYIPNYNEKFKNRATLTVDTSASTAYMELSSLASEDTALYYCAGGYFDVWGQGTTVTVSS VL: DIVMTQSPDSLAVSLGERATINCKSSQSLLSSGNQKNYLAWYQQKPGQPPKLLIYGASTRESGVPDRFTGSGSGTDFTLTISSLQAEDVAVYYCQNDHSYPYTFGQGTKLEIK		0.42 nM	975 MFI a.u	1.45 nM	914 MFI a.u	0.86 nM	1.07	> 2 fold	0.4 nM	0.119 nM	0.94	4.27e-05 s⁻¹	359000 M⁻¹ s⁻¹	1.69	1.07	
H11K1 (full humanized antibody) (antibody, V domains shown, Humanized full antibody, human IgG1; also called VH11K1) VH: QVQLVQSGAEVKKPGSSVKVSCKASGYTFTSYWINWVRQAPGQGLEWIGDIYPGSYIPNYNEKFKNRATLTVDTSASTAYMELSSLRSEDTAVYYCAGGYFDVWGQGTTVTVSS VL: DIVMTQSPDSLSVSLGERATINCKSSQSLLSSGNQKNYLAWYQQKPGQPPKLLIYGASTRESGVPDRFTGSGSGTDFTLTISSLQAEDVAVYYCQNDHSYPYTFGQGTKLEIK		0.72 nM	982 MFI a.u	1.46 nM	820 MFI a.u	0.91 nM	2.43	> 2 fold	0.3 nM					1.61	1.2	Kd [15]: 0.0167 nM; Relative Kd (against VH0K0 N28T) [15]: 0.13; koff [15]: 4.79e-06 s⁻¹; kon [15]: 287000 M⁻¹ s⁻¹; EC50 [16]: 0.29 nM; EC-90 [16]: 10.7 nM
